Our source for the Km values is article PMC8659191, “Expressed Soybean Leghemoglobin: Effect on Escherichia coli at Oxidative and Nitrosative Stress” (Molecules, 2021).

The data set has as its system CC(C)(C)OO. Description: purified protein. Conditions: pH 7.4; 25.0 °C.

“Lba (soybean leghemoglobin a, recombinant, ferric metLb) (Glycine max)”: the Km is 5.4 ± 0.05 mM.

A word on the Km: it is the substrate concentration at which the rate is half of its maximum.
